The data set concerns the molecule itself. The data set can be described thus: crystal structure.

B1: Salmonella typhi outer membrane phospholipase A (OmpLA), leaderless (21Q-289F) (enzyme)
chain: QEATIKEVHDAPAVRGSIIANMLQEHDNPFTLYPYDTNYLIYTNTSDLNKEAISTYNWSENARKDEVKFQLSLAFPLWRGILGPNSVLGASYTQKSWWQLSNSKESSPFRETNYEPQLFLGFATDYRFAGWTLRDVEMGYNHDSNGRSDPTSRSWNRLYTRLMAENGNWLVEVKPWYVIGSTDDNPDITKYMGYYQLKIGYHLGEAVLSAKGQYNWNTGYGGAEVGLSYPVTKHVRLYTQVYSGYGESLIDYNFNQTRVGVGVMLNDIF
For the protein B1, the binding result is recorded as “binds”.

Values taken from article doi:10.1101/2020.01.08.898262 (bioRxiv, 2020).
